The source of these data is article PMC11915744.

The target in the test is NS1 used in the SPR assay (UniProt P03496). The test can be described thus: SPR. (In general: SPR reads the build-up and loss of mass on a sensor chip optically.)

As usually defined, the Kd is the free concentration of one partner at which half of the binding sites on the other are occupied at equilibrium, for simple one-to-one binding. Low values mean higher affinity, high ones lower affinity.

Sequence of UniProt P03496 (P03496 whole entry): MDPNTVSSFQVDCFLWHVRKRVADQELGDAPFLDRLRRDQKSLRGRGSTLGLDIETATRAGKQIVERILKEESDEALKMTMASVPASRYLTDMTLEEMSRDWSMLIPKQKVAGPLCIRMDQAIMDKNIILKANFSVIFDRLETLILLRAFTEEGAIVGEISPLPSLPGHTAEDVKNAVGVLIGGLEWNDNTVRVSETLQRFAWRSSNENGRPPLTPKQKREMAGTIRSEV

As to “hnRNPH1 used in the SPR assay (from UniProt P31943 1-449) (natural protein)”, the Kd worked out at 10.4 µM.
